Measured values as given in PMC12494784 (Nature Communications, 2025).

How the values were obtained:
cryo-EM structure = molecular target: the molecule itself; assay: cryo-EM structure
calmodulin = calmodulin (UniProt P0DP23); assay: cryo-EM structure

binding result (calmodulin)	Binder	stoichiometry N (cryo-EM structure)
binds	truncated Xenopus laevis KCNQ1 (residues 67-610), wild type (domain or fragment) ATDPPRPTINLDPRVSIYSGRRPLLSRTNIQGRVYNFLERPTGWKCFVYHFTVFLIVLICLIFSVLSTIQQYNNLATETLFWMEIVLVVFFGAEYVVRLWSAGCRSKYVGVWGRLRFARKPISVIDLIVVVASVIVLCVGSNGQVFATSAIRGIRFLQILRMLHVDRQGGTWRLLGSVVFIHRQELITTLYIGFLGLIFSSYFVYLAEKDAIDSSGEYQFGSYADALWWGVVTVTTIGYGDKVPQTWIGKTIASCFSVFAISFFALPAGILGSGFALKVQQKQRQKHFNRQIPAAASLIQTAWRCYAAENPDSATWKIYIRKQSRNHHLMSPSPKPKKSAMVKKKKIRTERDEGSTDKMLNIPHITYDHVADDRKNDGYSVESYENTVRKPFGFLDPSTGPFIRTSSFTDDLDMEGDTLLTPITHISELKEHHRAAIKVIRRMQYFVAKKKFQQARKPYDVRDVIEQYSQGHLNLMVRIKELQRRLDQSLGKPSLFLSVSDKVKDKGINTIGSRLNRVEDKVTQMDHKLNLITDMLHHLLTNQQ	4
binds	Xenopus KCNQ1 E150R/R221E (residues 67-610) (domain or fragment) ATDPPRPTINLDPRVSIYSGRRPLLSRTNIQGRVYNFLERPTGWKCFVYHFTVFLIVLICLIFSVLSTIQQYNNLATETLFWMRIVLVVFFGAEYVVRLWSAGCRSKYVGVWGRLRFARKPISVIDLIVVVASVIVLCVGSNGQVFATSAIRGIEFLQILRMLHVDRQGGTWRLLGSVVFIHRQELITTLYIGFLGLIFSSYFVYLAEKDAIDSSGEYQFGSYADALWWGVVTVTTIGYGDKVPQTWIGKTIASCFSVFAISFFALPAGILGSGFALKVQQKQRQKHFNRQIPAAASLIQTAWRCYAAENPDSATWKIYIRKQSRNHHLMSPSPKPKKSAMVKKKKIRTERDEGSTDKMLNIPHITYDHVADDRKNDGYSVESYENTVRKPFGFLDPSTGPFIRTSSFTDDLDMEGDTLLTPITHISELKEHHRAAIKVIRRMQYFVAKKKFQQARKPYDVRDVIEQYSQGHLNLMVRIKELQRRLDQSLGKPSLFLSVSDKVKDKGINTIGSRLNRVEDKVTQMDHKLNLITDMLHHLLTNQQ	
